Consider 4 molecules from PMC11146434, “Mitigation of TDP-43 toxic phenotype by an RGNEF fragment in amyotrophic lateral sclerosis models” (Brain, 2023).

B1: His-MBP-RGNEF^1–275 (domain or fragment, human, UniProt Q8N1W1 1-275, looked up)
chain: MELSCSEAPLYGQMMIYAKFDKNVYLPEDAEFYFTYDGSHQRHVMIAERIEDNVLQSSVPGHGLQETVTVSVCLCSEGYSPVTMGSGSVTYVDNMACRLARLLVTQANRLTACSHQTLLTPFALTAGALPALDEELVLALTHLELPLEWTVLGSSSLEVSSHRESLLHLAMRWGLAKLSQFFLCLPGGVQALALPNEEGATPLDLALREGHSKLVEDVTNFQGRWSPSFSRVQLSEEASLHYIHSSETLTLTLNHTAEHLLEADIKLFRKYFWDR
notes: Detailed purification protocol is in the Supplementary Methods; also called His-NF242; NF242 (in the SPR experiments); source: E. coli, purified (Ni-IMAC); not shown: MBP, N-terminal, kept
B2: His-RRM-1 (domain or fragment, human, UniProt Q13148 101-191, looked up)
chain: QKTSDLIVLGLPWKTTEQDLKEYFSTFGEVLMVQVKKDLKTGHSKGFGFVRFTEYETQVKVMSQRHMIDGRWCDCKLPNSKQSQDEPLRSR
notes: source: E. coli, purified (Ni-IMAC)

Data set [1] concerns the target B1. The data set can be described thus: SPR; His-MBP-RGNEF^1–275 amine-coupled on a carboxymethyl dextran chip; TDP-43 fragments as analytes; 1× PBS, 0.1% Tween-20; 22°C.
Data set [2] deals with T1, His-GST-TDP-43^wt (human, UniProt Q13148 1-414).
T1 construct: also called full-length wild-type TDP-43 with an N-terminal GST fusion; source: E. coli, purified (Ni-IMAC); not shown: GST, N-terminal, kept
The data set can be described thus: SPR; His-MBP-RGNEF^1–275 amine-coupled on a carboxymethyl dextran chip (2000 to 8000 µRIU); His-GST-TDP-43^wt as analyte; 20 mM HEPES pH 7.5, 50 mM KCl, 0.5 mM MgCl2, 50 mM NaCl, 0.05% Tween-20; 22°C. The settings on record: both partners purified. A general note: Surface plasmon resonance follows binding to a sensor surface in real time, without labels.

The target in data set [3] is T2, His-TDP-43 1-269 (human, UniProt Q13148 1-269). The data set can be described thus: SPR; competition: 3′-biotinylated RNA oligo on a neutravidin chip; 100 nM His-TDP-43^1–269 pre-incubated 30 min at room temperature with 1 or 10 μM His-MBP-RGNEF^1–275, then injected; 10 mM Tris pH 8.0, 150 mM NaCl, 2 mM MgCl2, 0.05% Tween-20, 1 μM BSA.
The target of data set [4] is T2, His-TDP-43 1-269. The data set can be described thus: SPR; 100 nM TDP-43 1-269, no NF242; 10 mM Tris pH 8.0, 150 mM NaCl, 2 mM MgCl2, 0.05% Tween-20, 1 uM BSA; 30 min pre-incubation at room temperature; SPR at 22 C (stated for the protein-protein SPR); 80 RIU RNA immobilized. The settings on record: protein: recombinant; tags: N-terminal 6xHis (pQE30); label: 3' biotin.
Target sequence in this assay (Q13148 1-269): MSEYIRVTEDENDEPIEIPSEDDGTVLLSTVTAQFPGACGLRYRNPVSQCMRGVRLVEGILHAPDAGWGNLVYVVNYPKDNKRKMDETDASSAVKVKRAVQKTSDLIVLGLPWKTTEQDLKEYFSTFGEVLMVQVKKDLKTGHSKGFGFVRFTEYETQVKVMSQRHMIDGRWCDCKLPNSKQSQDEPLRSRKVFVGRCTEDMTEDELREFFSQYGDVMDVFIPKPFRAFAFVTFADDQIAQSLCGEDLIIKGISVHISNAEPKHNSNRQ

T1 sequence (Q13148 whole entry, the tested form may be a part): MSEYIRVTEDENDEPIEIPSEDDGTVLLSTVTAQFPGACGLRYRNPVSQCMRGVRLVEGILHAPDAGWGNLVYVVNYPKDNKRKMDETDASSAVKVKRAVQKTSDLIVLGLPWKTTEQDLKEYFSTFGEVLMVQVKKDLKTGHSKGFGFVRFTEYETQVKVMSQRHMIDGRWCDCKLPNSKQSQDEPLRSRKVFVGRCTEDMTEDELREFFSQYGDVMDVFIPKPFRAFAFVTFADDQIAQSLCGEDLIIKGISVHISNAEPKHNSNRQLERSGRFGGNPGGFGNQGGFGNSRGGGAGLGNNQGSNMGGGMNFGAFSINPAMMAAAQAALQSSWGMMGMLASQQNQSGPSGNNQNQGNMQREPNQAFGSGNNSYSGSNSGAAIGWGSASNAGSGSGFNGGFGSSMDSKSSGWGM

“His-TDP-43^1–269 (from UniProt Q13148 1-269) (domain or fragment)”: the Kd – broadly, the free concentration of one partner at which half of the binding sites on the other are occupied at equilibrium, for simple one-to-one binding – in data set [1] is 4110 nM. Take B1: in data set [2], binding was characterised by a dissociation constant (Kd) of 1780 nM. In data set [3], this molecule gave a percent reduction of the signal of TDP-43 on the RNA chip at 1 μM NF242 of 10% and a percent reduction of the signal of TDP-43 on the RNA chip at 10 μM NF242 of 50%. With B2, the binding result in data set [1] (both partners purified) was “binds”. As to GUGUGUGAAUGAAUAAA (ssRNA) [3'-biotinylated RNA oligo], the binding result in data set [4] is “binds”.
